According to the DeepSol protein solubility set:

Test: soluble on expression in E. coli; label from the status in PepcDB or PDB records

Row | Sequence | soluble on expression in E. coli
1 | MTNPLNSTAANRSNQPSSDGISDGQITNEEAESLINKKNCSGHKLKEVTDSDTFSDNGKDDSDTKKRFHYHQDQRRMSLTSIVAVESPSSSNAPSRKTIDLGHGSDLIYIQRFLPFQQSWTFFDYLDKHIPWTRPTIRVFGRSCLQPRDTCYVASSGLTALVYSGYRPTSYSWDDFPPLKEILDAIYKVLPGSRFNSLLLNRYKGASDYVAWHADDEKIYGPTPEIASVSFGCERDFVLKKKKDEESSQGKTGDSGPAKKRLKRSSREDQQSLTLKHGSLLVMRGYTQRDWIHSVPKRAKAEGTRINLTFRLVL | not soluble
2 | MTNRLILFDFDETYYKHRTNQADIPYLKEMKSLLQNITAKNNVITAILTGSTIESVLQKMSKVNMSYKPQHIFSDLSSKMFTWNNCEYIESDEYKNEVLIEPFLLEDILDILKHVSSKHKVEFIPQRIFRENETLYNFYFYSSGDTHLDKTILEDLSQYSKTRDYTMTFNRCNPLAGDPENAYDINFTPKNAGKLYATKILMNKYGVPKELIIGFGDSGNDEAFLSYLDHAMIMSNSQDEEMKSKFKNTKYPYYKGIYTHVREFIEYENV | not soluble
3 | MTNRQWETLREYDEIKYEFYEGIAKVTINRPEVRNAFTPKTVAEMIDAFSRARDDQNVSVIVLTGEGDLAFCSGGDQKKRGHGGYVGEDQIPRLNVLDLQRLIRIIPKPVIAMVKGYAVGGGNVLNVVCDLTIAADNAIFGQTGPKVGSFDAGYGSGYLARIVGHKKAREIWYLCRQYNAQEALDMGLVNTVVPLEKVEDETVQWCKEIMKHSPTALRFLKAAMNADTDGLAGLQQMAGDATLLYYTTDEAKEGRDAFKEKRDPDFDQFPKFP | soluble
4 | MTNSVLRVLEHLRAHDHDAIVLAPGDADTPHEYAGFPVIPLASLHWPGYQDVRVSTSPQWTMERYLSEFEPDVVHLAGPFMIGYKGAMAAASLGIPIVAIYQTDIPSYAGRYGLGKLEFYGWYRVRQIHSLAVATYAPSTFSRDQLVSHGVPRVDIWGRGVDKVRFHPSKRSQQLHDEWAPNGEVVIGYMGRLAAEKRVADMTNLADIPNTKLVIVGDGPARAEVEKQLPHAVFTGGLGGEDLPRALASMDVFCSTGELETFCQAVQEAKACGLPVISPRKGGPIDLIDSSRTGWLYEPGDMTDFRSRVIDLVGDDYKRHAMGIAARASIENRTWENLCAELVEHYKEAIRLAGRSTRIRAVLLEHHHHHH | not soluble
5 | MTNTGETKVIESHGTIKKIDSLSTMPYCGVETDENAVVEEKITLESGKSWSPKHYELLHERIERLIDEKQQFFSLEFFPPRFVNGVPNFLERVERLSEGGSVFVDMTWHMGSDPANVDKVTSSSSIAASMLDYCGVDTMLHMTCVQYNKADTLKHLEQAKAMGLRSILALRGDLPPGTELEDTHQFRALDMIRWIREEYGNYFSIGCAGYPLGHPQAPSYKADLMYLKAKCDAGANFVITQLFFEAETFEKFVRDCREIGITQPIIPGIMPIMGYESIKRIAKLSQLEIPQHILDDLEPIKHDDDAVQKYGTERCIEMCRRLLDNGTAPSIHLYTMNREGSIREILKSLGLWKLEGDRVFPWKNRSQHPIRCLESVRPIYWSFRPRSYITRTRDWDQFPNGRWGNSSSPAFGDVSSYYLSNLTTVRNADDRLAMFGANIESFEDVKRVFINYITQAPNADGVKVTVLPWTEAETGVQPETSLISEQLVWCNENGILTVNSQPSVNGAPSTDPLVGWGKPGGYCYQKAYLECFMTAELSDKLIQIIEREFPVRVNYHAINKDSTFDKTNSEETTPIAVTWGVFPGSEIAQPTVVDPLSFRAWRDEAYQMWMAQWGDFYPKESKSYGVIKAVHDEFRLVTLVDNDFQKPSVLFDVLQKALDELKK | not soluble
6 | MTPAQLTGTTDSHLQSTMVGQKAFLMHPDVANDLLNMIEAAKKAGFKMEIASGFRDFSRQRAIWNGKYEGELPILDSNSQPLNKAALSDEEKLKAILRWSALPGGSRHHWGCDFDVYARNLLPPDTKLQLEPWEYLEGHQLAFYCWLKDHIDEFGFFFPYLQDLGGVAIEPWHISHKAIGQQCAAQLNAEMLKDELVRQNQQHNIAGLESILNNLDSILSTYIRNITPPPEAL | not soluble
